Key:
Test in all cases: two-hybrid library CCmax;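 note: natural log of median RNA to DNA barcode read ratio; higher means stronger binding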
APC9291-AA = molecular target: T1, APC9291-AA; details: mean of both orientations
T1 chain: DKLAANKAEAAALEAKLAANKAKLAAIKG

APC4100-AA = molecular target: T2, APC4100-AA; details: mean of both orientations
T2 chain: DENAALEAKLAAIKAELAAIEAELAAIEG

APC2474-AA = molecular target: T3, APC2474-AA
T3 chain: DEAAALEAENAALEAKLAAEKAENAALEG

APC2981-AA = molecular target: T4, APC2981-AA; details: mean of both orientations
T4 chain: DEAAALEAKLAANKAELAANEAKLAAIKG

APC9182-AA = molecular target: T5, APC9182-AA; details: mean of both orientations
T5 chain: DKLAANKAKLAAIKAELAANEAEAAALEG

APC2543-AA = molecular target: T6, APC2543-AA; details: mean of both orientations
T6 chain: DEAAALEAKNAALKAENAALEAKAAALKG

APC9141-AA = molecular target: T7, APC9141-AA; details: mean of both orientations
T7 chain: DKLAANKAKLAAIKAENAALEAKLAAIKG

APC2811-AA = molecular target: T8, APC2811-AA; details: mean of both orientations
T8 chain: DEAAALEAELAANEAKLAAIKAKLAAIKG

APC2724-AA = molecular target: T9, APC2724-AA; details: mean of both orientations
T9 chain: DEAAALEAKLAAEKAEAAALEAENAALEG

APC3354-AA = molecular target: T10, APC3354-AA; details: mean of both orientations
T10 chain: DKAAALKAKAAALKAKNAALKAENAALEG

APC3881-AA = molecular target: T11, APC3881-AA; details: mean of both orientations
T11 chain: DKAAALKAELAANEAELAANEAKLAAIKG

APC542-AA = molecular target: T12, APC542-AA; details: mean of both orientations
T12 chain: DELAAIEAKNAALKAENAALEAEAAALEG

APC3323-AA = molecular target: T13, APC3323-AA; details: mean of both orientations
T13 chain: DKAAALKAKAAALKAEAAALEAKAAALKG

APC4336-AA = molecular target: T14, APC4336-AA; details: mean of both orientations
T14 chain: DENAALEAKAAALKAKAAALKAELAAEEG

APC8516-AA = molecular target: T15, APC8516-AA; details: mean of both orientations
T15 chain: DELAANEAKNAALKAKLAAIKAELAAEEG

APC6088-AA = molecular target: T16, APC6088-AA; details: mean of both orientations
T16 chain: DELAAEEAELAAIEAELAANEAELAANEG

APC2556-AA = molecular target: T17, APC2556-AA; details: mean of both orientations
T17 chain: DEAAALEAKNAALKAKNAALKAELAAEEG

APC7524-AA = molecular target: T18, APC7524-AA; details: mean of both orientations
T18 chain: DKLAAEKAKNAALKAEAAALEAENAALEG

APC5531-AA = molecular target: T19, APC5531-AA; details: mean of both orientations
T19 chain: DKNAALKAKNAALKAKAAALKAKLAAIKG

APC3265-AA = molecular target: T20, APC3265-AA; details: mean of both orientations
T20 chain: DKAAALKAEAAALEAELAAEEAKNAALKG

APC9806-AA = molecular target: T21, APC9806-AA; details: mean of both orientations
T21 chain: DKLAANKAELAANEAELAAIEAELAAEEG

APC5009-AA = molecular target: T22, APC5009-AA; details: mean of both orientations
T22 chain: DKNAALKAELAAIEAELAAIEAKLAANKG

APC8401-AA = molecular target: T23, APC8401-AA; details: mean of both orientations
T23 chain: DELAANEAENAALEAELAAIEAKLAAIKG

B1: APC2474-AA (peptide)
chain: DEAAALEAENAALEAKLAAEKAENAALEG
interaction score (APC9291-AA): -1.71
interaction score (APC4100-AA): -1.97
interaction score (APC2474-AA): -1.69
interaction score (APC2981-AA): -1.45
interaction score (APC9182-AA): -1.69
interaction score (APC2543-AA): -1.61
interaction score (APC9141-AA): -2.1
interaction score (APC2811-AA): -1.58
interaction score (APC2724-AA): -1.93
interaction score (APC3354-AA): -1.35
interaction score (APC3881-AA): -1.83
interaction score (APC542-AA): -1.4
interaction score (APC3323-AA): -1.45
interaction score (APC4336-AA): -1.67
interaction score (APC8516-AA): -1.93
interaction score (APC6088-AA): -1.54
interaction score (APC2556-AA): -1.49
interaction score (APC7524-AA): -2.27
interaction score (APC5531-AA): -1.71
interaction score (APC3265-AA): -1.52
interaction score (APC9806-AA): -1.64
interaction score (APC5009-AA): -1.39
interaction score (APC8401-AA): -1.53

Reference: article PMC10397247
